Assays:
[1] = target: human insulin receptor isoform B (human) (UniProt P06213); assay: SPA competition with 100 pM [125I]-human insulin, membranes of CHO cells overexpressing IR
[2] = target: human insulin receptor isoform B (human) (UniProt P06213); assay: cell-based or functional assay
[3] = Storage stability of the activated sulfonamide; assay type: physicochemical; settings: acetonitrile solution under argon, 2 to 8° C.
Procedure: 32.5 g 2-[2-[2-[[2-[2-[2-[[2-[[4-(16-tert-butoxy-16-oxo-hexadecoxy)phenyl]sulfonylamino]-pyrimidine-5-carbonyl]amino]ethoxy]ethoxy]acetyl]amino]ethoxy]ethoxy]acetic acid (sticky syrup) was dissolved in 305 ml dry acetonitrile. 305 ml dry ethyl acetate under an argon layer, 16.25 g (63.4 mmol) N,N-disuccinimidylcarbonat and 3.25 g (26.6 mmol) dimethylaminopyridine was added under stirring at room temperature (25° C.). After 90 minutes, the solvent was distilled off using a rotary evaporator and the remaining oily product was dissolved in 1.5 liters of ethyl acetate. The ethyl acetate solution was extracted three times, each time with 300 ml 0.1 N HCl and 300 ml saturated NaCl solution. The solvent was distilled off using a rotary evaporator, leaving again an oily product. The oily product was dissolved in 0.5 liters of ethyl acetate, the precipitated NaCl was filtered off and the ethyl acetate was distilled off. Next, 0.5 liters of ethyl acetate was added and the solvent was distilled off using a rotary evaporator. […] Yield in the acetonitrile solution was calculated from HPLC data as 78% based on the amount of 2-[2-[2-[[2-[2-[2-[[2[[4-(16-tert-butoxy-16-oxo-hexadecoxy)phenyl]sulfonylamino]-pyrimidine-5-carbonyl]amino]ethoxy]ethoxy]acetyl]amino]ethoxy]ethoxy]acetic acid used. […]

| Insulin-receptor binding affinity (relative to human insulin) (relative to human insulin) [1] | Autophosphorylation activity (relative to human insulin) [2] | stability in solution [3] | Compound |
| --- | --- | --- | --- |
| 0.4 | 0.28 |  | Glu(A14)Glu(B3)Val(B16)Des(B30)-Insulin (ligand) |
|  |  | less than 3 days | O=C(O)CCCCCCCCCCCCCCCOc1ccc(S(=O)(=O)Nc2ncc(C(=O)NCCOCCOCC(=O)NCCOCCOCC(=O)ON3C(=O)CCC3=O)cn2)cc1 [16-[4-[[5-[2-[2-[2-[2-[2-[2-(2,5-dioxopyrrolidin-1-yl)oxy-2-oxo-ethoxy]ethoxy]ethylamino]-2-oxo-ethoxy]ethoxy]ethylcarbamoyl]pyrimidin-2-yl]sulfamoyl]phenoxy]hexadecanoate] |
| 0.17 | 0.23 |  | Glu(A14)Gly(A21)Val(B16)Trp(B25)Des(B30)-Insulin (ligand) |
|  | 0.04 |  | Glu(A14)Ile(B25)Des(B30)-Insulin (ligand) |
|  | 0.03 |  | Glu(A14)Val(B16)Val(B25)Des(B30)-Insulin (ligand) |
|  | 0.02 |  | Glu(A14)Glu(B3)Val(B16)Val(B25)Des(B30)-Insulin (ligand) |
|  | 0.04 |  | Glu(A14)Ile(B16)Val(B25)Des(B30)-Insulin (ligand) |
| 0.01 | 0.07 |  | Glu(A14)Glu(B16)His(B25)Des(B30)-Insulin (ligand) |
| 0.57 | 0.4 |  | Gly(A21)Trp(B16)Des(B30)-Insulin (ligand) |
| 0.43 | 0.38 |  | Gly(A21)Trp(B16)Trp(B25)Des(B30)-Insulin (ligand) |
| 0.01 | 0.04 |  | Glu(A14)Leu(B16)Ala(B25)Des(B30)-Insulin (ligand) |
| 0.4 | 0.35 |  | Gly(A21)Trp(B16)His(B25)Des(B30)-Insulin (ligand) |
|  | 0.37 |  | Glu(A14)Gly(A21)Trp(B25)Des(B30)-Insulin (ligand) |
|  | 0.1 |  | His(B16)His(B25)Des(B30)-Insulin (ligand) |
|  | 0.06 |  | Leu(B25)Des(B30)-Insulin (ligand) |
| 0.02 | 0.03 |  | Glu(A14)Gly(A21)Glu(B3)Val(B25)Des(B30)-Insulin (ligand) |
| 0.63 | 0.38 |  | Glu(A14)Gly(A21)Trp(B16)Des(B30)-Insulin (ligand) |
|  | 0.01 |  | Glu(A14)Val(B16)Ile(B25)Des(B30)-Insulin (ligand) |

| Insulin-receptor binding affinity (relative to human insulin) (relative to human insulin) [1] | Autophosphorylation activity (relative to human insulin) [2] | stability in solution [3] | Compound |
| --- | --- | --- | --- |
|  | 0.06 |  | Val(B25)Des(B30)-Insulin (ligand) |
| 0.12 | 0.13 |  | Glu(A14)Gly(A21)Glu(B3)Ile(B16)Trp(B25)Des(B30)-Insulin (ligand) |
|  | 0.2 |  | Ala(B25)-Insulin (ligand) |
| 0.21 | 0.19 |  | Glu(A14)Gly(A21)Glu(B3)Val(B16)Trp(B25)Des(B30)-Insulin (ligand) |
|  | 0.32 |  | Val(B16)Des(B30)-Insulin (ligand) |
| 0.36 | 0.29 |  | Glu(A14)His(B16)Des(B30)-Insulin (ligand) |
|  | 0.87 |  | Glu(A14)Des(B30)-Insulin (ligand) |
|  | 0.34 |  | Leu(B16)Des(B30)-Insulin (ligand) |
|  | 0.17 |  | Ala(B25)Des(B30)-Insulin (ligand) |
|  | 0.31 |  | His(B25)Des(B30)-Insulin (ligand) |
| 0.12 | 0.11 |  | Glu(A14)His(B16)His(B25)Des(B30)-Insulin (ligand) |
| 0.23 | 0.18 |  | Glu(A14)Ile(B16)Des(B30)-Insulin (ligand) |
|  | 0.32 |  | Glu(A14)Val(B16)Des(B30)-Insulin (ligand) |
| 0.01 | 0.02 |  | Glu(A14)Gly(A21)Glu(B3)Ile(B16)Val(B25)Des(B30)-Insulin (ligand) |
|  | 0.01 |  | Glu(A14)Glu(B3)Ile(B16)Ile(B25)Des(B30)-Insulin (ligand) |
| 0.01 | 0.01 |  | Glu(A14)Gly(A21)Glu(B3)Val(B16)Val(B25)Des(B30)-Insulin (ligand) |
|  | 0.04 |  | Glu(A14)Val(B25)Des(B30)-Insulin (ligand) |
